The text below walks through data of patent US10494415B2, “Insulin-like growth factor 2 (IGF2) binding agents” (Cancer Research Technology Limited, priority 2015, dated 2019).

In the assay the target is IGF2 (Homo sapiens, UniProt P01344). Nature of the assay: SPR (Biacore T200) of recombinant IGF2R domain 11 mutants on immobilised biotinylated IGF2. In kind it is binding. On the set-up: purchased GroPep. The settings on record: for off rate / koff (figure legend) / on rate / kon (figure legend): FIG. 2, 3. From the text: Surface plasmon resonance (SPR) binding analysis of recombinant M6P/IGF2R domain 11 mutants interaction with IGF2. Kon indicates association (on) rate; koff, dissociation (off) rate; RU, response units. Binding to IGF2 assessed with BIAcore T200 using purified biotinylated IGF2 and IGF1 on a streptavidin biosensor chip. Recombinant proteins were expressed either in E. coli and/or P. pastoris. All the mutants in the FG and CD loops are on the domain 11^AB5 background for the AB loop unless otherwise stated. All experiments were carried out at 25° C. in HBS-EP buffer (pH 7.4), were repeated 2-5 times on two independent BIAcore chips. nd=not determined. Data for KD expressed as mean of each experiment, and means of kon and koff are shown.
IGF2, sequence (P01344 25-91): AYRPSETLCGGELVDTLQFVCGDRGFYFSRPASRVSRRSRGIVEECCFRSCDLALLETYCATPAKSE
Measurements were carried out at 25° C. in HBS-EP buffer (pH 7.4) (nd=not determined, np=no protein). Data for KD expressed as mean of each experiment, and means of kon and koff are shown.
Measurements were carried out at 25° C. in MES-EP buffer, 20 mM MES pH 6.5, 150 mM NaCl, 3 mM EDTA, and 0.005% (v/v) surfactant P20). Data for KD expressed as mean of each experiment, and means of kon and koff are shown.
Final kinetic analysis of mutants by SPR was conducted using a Biacore T200 biosensor at 25° C. in either HBS-EP (10 mM HEPES pH 7.4, 150 mM NaCl, 3 mM EDTA, and 0.005% (v/v) surfactant P20) or MES-EP (20 mM MES pH 6.5, 150 mM NaCl, 3 mM EDTA, and 0.005% (v/v) surfactant P20) at a flow-rate of 40 μL min^−1. […] For the analysis of the Fc-domain 11^AB5 interaction, approximately 50 RU of a biotinylated IGF2:biotinylated ubiquitin mixture (1:8 proportion) was immobilized on the CM5-streptavidin chip. This interaction was also analysed by immobilizing the Fc-domain 11^AB5 and Fc-domain 11^AB5-RHH (or Fc-domain 11^I1572A as control) by Human Antibody Capture (monoclonal mouse anti-human IgG antibody immobilised on a CM5 chip by amine coupling, GE Healthcare) with and without human IgG1 Fc fragment (Bethyl Laboratories, UK) in the control flow cell. Increasing concentrations of IGF2^1-67, proIGF2^1-104, proIGF2^1-156 and IGF1 ranging from 0.125 to 32 nM were injected. T200 BiaEvaluation software (GE Healthcare) was used to fit the resulting curves according to a 1:1 binding model. Steady state affinities were determined using the kinetic data, taking the response average at 5 seconds before injection end and for 5 seconds average. Thermodynamic data was performed across the temperature range of 10° C. to 30° C., van't Hoff and Erying plots generated and ΔH, −TΔS and ΔG values determined as previously described.

B1: K1631W: domain 11 HI loop mutant K1631W, probably AB5 background (protein)
chain: MKSNEHDDCQVTNPSTGHLFDLSSLSGRAGFTAAYAKGWGVYMSICGENENCPPGVGACFGQTRISVGKANKRLRYVDQVLQLVYKDGSPCPSKSGLSYKSVISFVCRPEAGPTNRPMLISLDWQTCTLFFSWHTPLACEQATECSV
Regarding B1, under “Table 1, 25° C., HBS-EP pH 7.4”, the Kinetics koff stood at 0.0034 s⁻¹ and the Kinetics kon is 1.18e+06 M⁻¹ s⁻¹. Also, where the note is “pH 7.4”, the Kd is 3.23 nM.

B2: S1600A: domain 11 AB5 background + FG loop S1600A (protein)
chain: MKSNEHDDCQVTNPSTGHLFDLSSLSGRAGFTAAYAKGWGVYMSICGENENCPPGVGACFGQTRISVGKANKRLRYVDQVLQLVYKDGSPCPAKSGLSYKSVISFVCRPEAGPTNRPMLISLDKQTCTLFFSWHTPLACEQATECSV
On to B2, for which, for the setting “Table 1, 25° C., HBS-EP pH 7.4”, the Kinetics koff was 0.2126 s⁻¹ and the Kinetics kon came out at 2.39e+06 M⁻¹ s⁻¹.

B3: K1601A: domain 11 AB5 background + FG loop K1601A (protein)
chain: MKSNEHDDCQVTNPSTGHLFDLSSLSGRAGFTAAYAKGWGVYMSICGENENCPPGVGACFGQTRISVGKANKRLRYVDQVLQLVYKDGSPCPSASGLSYKSVISFVCRPEAGPTNRPMLISLDKQTCTLFFSWHTPLACEQATECSV
As to B3, for the setting “Table 1, 25° C., HBS-EP pH 7.4”, the Kinetics koff was determined as 0.0220 s⁻¹ and the Kinetics kon came out at 3.26e+06 M⁻¹ s⁻¹.

B4: S1600V: domain 11 AB5 background + FG loop S1600V (protein)
chain: MKSNEHDDCQVTNPSTGHLFDLSSLSGRAGFTAAYAKGWGVYMSICGENENCPPGVGACFGQTRISVGKANKRLRYVDQVLQLVYKDGSPCPVKSGLSYKSVISFVCRPEAGPTNRPMLISLDKQTCTLFFSWHTPLACEQATECSV
For the molecule B4, the Kinetics koff (Table 1, 25° C., HBS-EP pH 7.4) was over 0.2 s⁻¹.

B5: P1599V: domain 11 FG loop mutant P1599V, AB5 background unless otherwise stated (protein)
chain: MKSNEHDDCQVTNPSTGHLFDLSSLSGRAGFTAAYAKGWGVYMSICGENENCPPGVGACFGQTRISVGKANKRLRYVDQVLQLVYKDGSPCVSKSGLSYKSVISFVCRPEAGPTNRPMLISLDKQTCTLFFSWHTPLACEQATECSV
Regarding B5, the Kinetics koff (Table 1, 25° C., HBS-EP pH 7.4) was over 0.1 s⁻¹.

B6: S1602N: domain 11 AB5 background + FG loop S1602N (protein)
chain: MKSNEHDDCQVTNPSTGHLFDLSSLSGRAGFTAAYAKGWGVYMSICGENENCPPGVGACFGQTRISVGKANKRLRYVDQVLQLVYKDGSPCPSKNGLSYKSVISFVCRPEAGPTNRPMLISLDKQTCTLFFSWHTPLACEQATECSV
Consider B6, for which, for the setting “Table 1, 25° C., HBS-EP pH 7.4”, the Kinetics koff was determined as 0.0112 s⁻¹ and the Kinetics kon came to 2.38e+06 M⁻¹ s⁻¹.

B7: P1599A: domain 11 FG loop mutant P1599A, AB5 background unless otherwise stated (protein)
chain: MKSNEHDDCQVTNPSTGHLFDLSSLSGRAGFTAAYAKGWGVYMSICGENENCPPGVGACFGQTRISVGKANKRLRYVDQVLQLVYKDGSPCASKSGLSYKSVISFVCRPEAGPTNRPMLISLDKQTCTLFFSWHTPLACEQATECSV
For the molecule B7, where the note is “Table 1, 25° C., HBS-EP pH 7.4”, the Kinetics koff is over 0.1 s⁻¹.

B8: AB5 Q1569R P1597H S1602H: domain 11 AB5 + Q1569R, P1597H, S1602H (AB5-RHH) (protein)
chain: MKSNEHDDCQVTNPSTGHLFDLSSLSGRAGFTAAYAKGWGVYMSICGENENCPPGVGACFGRTRISVGKANKRLRYVDQVLQLVYKDGSHCPSKHGLSYKSVISFVCRPEAGPTNRPMLISLDKQTCTLFFSWHTPLACEQATECSV
Take B8: the “off rate / koff (figure legend)” value is 0.0038 s⁻¹ and the “on rate / kon (figure legend)” value stood at 5.9e+06 M⁻¹ s⁻¹. In addition, for the setting “Table 3, 25° C., HBS-EP pH 7.4”, the Kinetics koff stood at 0.0038 s⁻¹ and the Kinetics kon came to 5.9e+06 M⁻¹ s⁻¹. Moreover, for the setting “Table 4, MES-EP pH 6.5”, the Kinetics koff amounted to 0.0030 s⁻¹ and the Kinetics kon was determined as 4.41e+06 M⁻¹ s⁻¹.

B9: S1600N: domain 11 AB5 background + FG loop S1600N (protein)
chain: MKSNEHDDCQVTNPSTGHLFDLSSLSGRAGFTAAYAKGWGVYMSICGENENCPPGVGACFGQTRISVGKANKRLRYVDQVLQLVYKDGSPCPNKSGLSYKSVISFVCRPEAGPTNRPMLISLDKQTCTLFFSWHTPLACEQATECSV
With B9, for the setting “Table 1, 25° C., HBS-EP pH 7.4”, the Kinetics koff came to 0.0910 s⁻¹ and the Kinetics kon turned out to be 3.95e+06 M⁻¹ s⁻¹.

B10: P1599G: domain 11 FG loop mutant P1599G, AB5 background unless otherwise stated (protein)
chain: MKSNEHDDCQVTNPSTGHLFDLSSLSGRAGFTAAYAKGWGVYMSICGENENCPPGVGACFGQTRISVGKANKRLRYVDQVLQLVYKDGSPCGSKSGLSYKSVISFVCRPEAGPTNRPMLISLDKQTCTLFFSWHTPLACEQATECSV
Turning to B10, the Kinetics koff (Table 1, 25° C., HBS-EP pH 7.4) is over 0.2 s⁻¹.

B11: AB3 Q1569R P1597H S1602H G1603K: domain 11 AB3 + Q1569R, P1597H, S1602H, G1603K (protein)
chain: MKSNEHDDCQVTNPSTGHLFDLSSLSGRAGFTAAYSKSGVVYMSICGENENCPPGVGACFGRTRISVGKANKRLRYVDQVLQLVYKDGSHCPSKHKLSYKSVISFVCRPEAGPTNRPMLISLDKQTCTLFFSWHTPLACEQATECSV
With B11, the “off rate / koff (figure legend)” value was determined as 0.0108 s⁻¹ and the “on rate / kon (figure legend)” value stood at 1.75e+07 M⁻¹ s⁻¹. Also, for the setting “Table 3, 25° C., HBS-EP pH 7.4”, the Kinetics koff was 0.0108 s⁻¹ and the Kinetics kon worked out at 1.75e+07 M⁻¹ s⁻¹. Further, for the setting “Table 4, MES-EP pH 6.5”, the Kinetics koff stood at 0.0087 s⁻¹ and the Kinetics kon stood at 2.43e+07 M⁻¹ s⁻¹.

B12: S1602H: domain 11 AB5 background + FG loop S1602H (protein)
chain: MKSNEHDDCQVTNPSTGHLFDLSSLSGRAGFTAAYAKGWGVYMSICGENENCPPGVGACFGQTRISVGKANKRLRYVDQVLQLVYKDGSPCPSKHGLSYKSVISFVCRPEAGPTNRPMLISLDKQTCTLFFSWHTPLACEQATECSV
For the molecule B12, for the setting “Table 1, 25° C., HBS-EP pH 7.4”, the Kinetics koff worked out at 0.0112 s⁻¹ and the Kinetics kon worked out at 3.61e+06 M⁻¹ s⁻¹.

B13: S1600Y: domain 11 AB5 background + FG loop S1600Y (protein)
chain: MKSNEHDDCQVTNPSTGHLFDLSSLSGRAGFTAAYAKGWGVYMSICGENENCPPGVGACFGQTRISVGKANKRLRYVDQVLQLVYKDGSPCPYKSGLSYKSVISFVCRPEAGPTNRPMLISLDKQTCTLFFSWHTPLACEQATECSV
B13: where the note is “Table 1, 25° C., HBS-EP pH 7.4”, the Kinetics koff is over 0.2 s⁻¹.

B14: K1601R: domain 11 AB5 background + FG loop K1601R (protein)
chain: MKSNEHDDCQVTNPSTGHLFDLSSLSGRAGFTAAYAKGWGVYMSICGENENCPPGVGACFGQTRISVGKANKRLRYVDQVLQLVYKDGSPCPSRSGLSYKSVISFVCRPEAGPTNRPMLISLDKQTCTLFFSWHTPLACEQATECSV
With B14, where the note is “Table 1, 25° C., HBS-EP pH 7.4”, the Kinetics koff is 0.0251 s⁻¹ and the Kinetics kon worked out at 5.28e+06 M⁻¹ s⁻¹.

B15: S1600L: domain 11 AB5 background + FG loop S1600L (protein)
chain: MKSNEHDDCQVTNPSTGHLFDLSSLSGRAGFTAAYAKGWGVYMSICGENENCPPGVGACFGQTRISVGKANKRLRYVDQVLQLVYKDGSPCPLKSGLSYKSVISFVCRPEAGPTNRPMLISLDKQTCTLFFSWHTPLACEQATECSV
Turning to B15, the Kinetics koff (Table 1, 25° C., HBS-EP pH 7.4) is over 0.2 s⁻¹.

B16: S1602A: domain 11 AB5 background + FG loop S1602A (protein)
chain: MKSNEHDDCQVTNPSTGHLFDLSSLSGRAGFTAAYAKGWGVYMSICGENENCPPGVGACFGQTRISVGKANKRLRYVDQVLQLVYKDGSPCPSKAGLSYKSVISFVCRPEAGPTNRPMLISLDKQTCTLFFSWHTPLACEQATECSV
On to B16, for which, where the note is “Table 1, 25° C., HBS-EP pH 7.4”, the Kinetics koff was determined as 0.0250 s⁻¹ and the Kinetics kon was 1.57e+06 M⁻¹ s⁻¹.

By Kd is commonly meant the concentration at which binding is half-saturated.
